Data: paper PMC3663881 (Journal of biomolecular screening, 2013)

Molecular target: T1, RhaS-GB1201b (RhaS L201R-GB1basic) (UniProt P09377 1-278, L201R)
T1 sequence: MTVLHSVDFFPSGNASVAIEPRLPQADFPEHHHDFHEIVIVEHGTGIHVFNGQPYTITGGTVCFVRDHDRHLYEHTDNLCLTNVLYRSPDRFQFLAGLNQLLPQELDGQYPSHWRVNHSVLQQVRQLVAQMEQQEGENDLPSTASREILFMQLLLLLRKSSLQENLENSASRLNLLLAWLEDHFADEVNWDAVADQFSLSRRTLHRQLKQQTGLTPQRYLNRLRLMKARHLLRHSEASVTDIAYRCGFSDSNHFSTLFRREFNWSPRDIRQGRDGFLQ
Test: EMSA

B1: rhaBAD RhaS site probe (oligos 3058/3288) (dsDNA)
DNA 1: ACGTTCATCTTTCCCTGGTTGCCAATGGCCCATTTTCCTGTCAGTAACGAGAAGGTCGCGAA
DNA 2: TTCGCGACCTTCTCGTTACTGACAGGAAAATGGGCCATTGGCAACCAGGGAAAGATGAACGT
- binding result: binds
